Reference: patent publication US20160237157A1 (published 2016)

Assays:
Test in all cases: SPR
[1] = biological target: T1, mouse FGFR4-Fc chimeric protein (mouse, UniProt Q03142 17-366)
T1 chain: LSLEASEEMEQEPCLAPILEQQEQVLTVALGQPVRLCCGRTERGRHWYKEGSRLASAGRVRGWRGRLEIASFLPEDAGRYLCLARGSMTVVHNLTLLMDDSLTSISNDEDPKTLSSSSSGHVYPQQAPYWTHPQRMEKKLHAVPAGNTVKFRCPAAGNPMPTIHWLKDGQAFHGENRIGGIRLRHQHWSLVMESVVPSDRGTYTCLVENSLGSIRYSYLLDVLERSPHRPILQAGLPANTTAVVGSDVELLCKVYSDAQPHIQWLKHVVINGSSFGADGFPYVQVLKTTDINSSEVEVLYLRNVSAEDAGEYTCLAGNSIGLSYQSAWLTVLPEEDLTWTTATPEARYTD

[2] = biological target: human FGFR4-Fc chimeric protein (UniProt P22455 22-369)
Sequence of human FGFR4-Fc chimeric protein (P22455 22-369, change not shown): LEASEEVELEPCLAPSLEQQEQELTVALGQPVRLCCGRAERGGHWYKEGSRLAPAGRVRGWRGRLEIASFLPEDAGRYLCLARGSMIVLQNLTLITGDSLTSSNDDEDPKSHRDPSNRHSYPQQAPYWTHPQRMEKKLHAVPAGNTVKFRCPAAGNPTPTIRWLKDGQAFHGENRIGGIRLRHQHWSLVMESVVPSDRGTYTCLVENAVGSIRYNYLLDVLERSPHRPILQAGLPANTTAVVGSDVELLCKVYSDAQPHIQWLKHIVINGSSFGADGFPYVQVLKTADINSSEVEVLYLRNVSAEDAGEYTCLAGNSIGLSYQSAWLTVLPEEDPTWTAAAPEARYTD

Cynomolgus FGFR4 = Cynomolgus FGFR4 (cynomolgus monkey)

B1: chimeric LD1 (chLD1) (antibody, V domains shown)
VH: EVQLQQPGAVLVRPGTSVKLSCKASGYTFTNHWMNWVKQRPGQGLEWIGMIHPSDSETTLDQKFKDKATLTVDKSSSTAYMQLNRPTSEDSAVYYCTRGDISLFDYWGQGTTVTVSS
VL: DIQMTQTTSSLSASLGDRVTITCRTSQDISNFLNWYQQKPDGTFKILISYTSRLHSGVPSRFSGSGSGTDYSLTISTLEQEDFATYFCQQGNALPYTFGGGTKLEIE
Kd [1]: 0.7 nM
Kd [2]: 0.7 nM

B2: LD1 (antibody, V domains shown)
VH: EVQLQQPGAVLVRPGTSVKLSCKASGYTFTNHWMNWVKQRPGQGLEWIGMIHPSDSETTLDQKFKDKATLTVDKSSSTAYMQLNRPTSEDSAVYYCTRGDISLFDYWGQGTTVTVSS
VL: DIQMTQTTSSLSASLGDRVTITCRTSQDISNFLNWYQQKPDGTFKILISYTSRLHSGVPSRFSGSGSGTDYSLTISTLEQEDFATYFCQQGNALPYTFGGGTKLEIE
Kd (Cynomolgus FGFR4): 0.8 nM
